The assay addresses T1, TRAF2 (untagged) (UniProt Q12933 1-501, limits assumed).
T1 construct: Negative control
T1 sequence (looked up): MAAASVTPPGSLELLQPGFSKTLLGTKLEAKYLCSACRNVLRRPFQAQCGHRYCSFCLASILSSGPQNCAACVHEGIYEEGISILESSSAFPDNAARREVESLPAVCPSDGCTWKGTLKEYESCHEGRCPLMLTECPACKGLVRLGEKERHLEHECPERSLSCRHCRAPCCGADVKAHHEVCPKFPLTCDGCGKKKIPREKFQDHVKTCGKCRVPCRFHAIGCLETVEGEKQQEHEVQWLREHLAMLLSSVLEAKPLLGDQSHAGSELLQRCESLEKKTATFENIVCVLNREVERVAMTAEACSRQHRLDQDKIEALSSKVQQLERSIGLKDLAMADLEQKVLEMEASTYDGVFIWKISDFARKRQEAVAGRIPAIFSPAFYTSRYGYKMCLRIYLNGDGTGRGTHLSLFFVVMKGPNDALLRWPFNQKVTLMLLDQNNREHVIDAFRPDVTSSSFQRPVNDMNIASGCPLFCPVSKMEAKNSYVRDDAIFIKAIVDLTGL
Kind of assay: co-immunoprecipitation from transfected HEK293 cells (anti-FLAG beads, anti-TRAF2 immunoblot). The protocol:
Whole cell lysates were prepared 48 hrs after the transfection and were incubated with anti-FLAG conjugated beads (Sigma) overnight.

B1: FLAG-tagged human IRF4 (other, UniProt Q15306 1-451, looked up)
chain: MNLEGGGRGGEFGMSAVSCGNGKLRQWLIDQIDSGKYPGLVWENEEKSIFRIPWKHAGKQDYNREEDAALFKAWALFKGKFREGIDKPDPPTWKTRLRCALNKSNDFEELVERSQLDISDPYKVYRIVPEGAKKGAKQLTLEDPQMSMSHPYTMTTPYPSLPAQQVHNYMMPPLDRSWRDYVPDQPHPEIPYQCPMTFGPRGHHWQGPACENGCQVTGTFYACAPPESQAPGVPTEPSIRSAEALAFSDCRLHICLYYREILVKELTTSSPEGCRISHGHTYDASNLDQVLFPYPEDNGQRKNIEKLLSHLERGVVLWMAPDGLYAKRLCQSRIYWDGPLALCNDRPNKLERDQTCKLFDTQQFLSELQAFAHHGRSLPRFQVTLCFGEEFPDPQRQRKLITAHVEPLLARQLYYFAQQNSGHFLRGYDLPEHISNPEDYHRSIRHSSIQE
notes: Expressed by transfection in HEK293 cells; pulled down from whole cell lysates with anti-FLAG beads; it is entered under this molecule; also called IFN-regulatory factor 4; FLAG-tagged IRF4; not shown: FLAG tag
On to B1, for which the binding result was “no binding”.

The record behind these values is patent publication US20100292153A1 (US Dept. of Health and Human Services, published 2010).
